We go through one substance from PMC8281565.

In the test the target is histone H3 (UniProt P68431). Nature of the test: co-immunoprecipitation (IP with SV40 antibody, WB, densitometry). The note with it: nuclear extracts from transfected HCT116 cells; three different experiments; parent: est. 1.0; read off a plot.

“SV40 Large T antigen wild type (from UniProt P03070) S106A; S111A; S112G”: the ratio to parent is 0.61.
